One assay has as its target T1, NAGK‑FL25‑C + PII-ST‑V (Synechococcus elongatus, UniProt P0A3F4).
T1 construct: gene glnB; same FRET complex as P6 (Cerulean on NAGK C-terminus, Strep-tag and Venus on PII C-terminus), E. coli; compound site on PII; with Acetylglutamate kinase
The assay can be described thus: FRET dissociation of PII - NAGK complex, […] nm ratio. In kind it is binding. Particulars: 0.1 mM ATP, 20 mM MgCl2, pH 7.5, 100 nM proteins, 30 min; competitive with ATP; a ratio, not a concentration.

In assay [1] the target is N-acetyl-L-glutamate kinase (NAGK), His-tagged wild type (Synechococcus elongatus) (UniProt Q6V1L5).
Chain of N-acetyl-L-glutamate kinase (NAGK), His-tagged wild type (Synechococcus elongatus) (Q6V1L5 whole entry): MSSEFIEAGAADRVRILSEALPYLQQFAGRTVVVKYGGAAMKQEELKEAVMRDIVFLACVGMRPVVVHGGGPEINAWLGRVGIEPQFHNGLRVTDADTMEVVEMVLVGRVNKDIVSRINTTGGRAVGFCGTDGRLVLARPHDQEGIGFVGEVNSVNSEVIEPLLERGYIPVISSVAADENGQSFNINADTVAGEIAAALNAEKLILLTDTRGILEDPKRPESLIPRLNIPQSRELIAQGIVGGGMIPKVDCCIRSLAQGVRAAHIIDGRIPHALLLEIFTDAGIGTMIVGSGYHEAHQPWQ
For assay [2] the target is unchanged. The source holds these as a separate data set.
Assay [3] addresses NAGK‑FL25‑C (NAGK fused by a flexible 25-residue linker to Cerulean) (Synechococcus elongatus) (UniProt Q6V1L5).
The target is the same in assay [4]. The assay can be described thus: FRET or BRET; association kinetics: FRET ratio (525 nm / 475 nm emission) every 8 s, excitation 433 nm; NAGK-FL25-C preincubated at 37 °C, then PII-Venus variant added; 100 nM proteins; 0.1 mM ATP; ratio not background-subtracted (0.54 is the zero baseline).
The target is the same in assay [5]. This is another data set of the same source.
For assay [6] the target is unchanged. The assay can be described thus: FRET or BRET; FRET ratio of NAGK-FL25-C + PII-ST-V with ADP 0.25 to 8 mM and 0.1 mM ATP (ADP/ATP ratio about 80 for the maximal drop); background subtracted and normalised. (Bioluminescence resonance energy transfer reports proximity on the nanometre scale.)
Assay [7] shares this target. The assay can be described thus: FRET or BRET; FRET ratio of NAGK-FL25-C + PII-ST-V after addition of 2-OG (0.8 and 1.6 mM, the highest concentrations); 0.1 mM ATP; background subtracted and normalised.

Chain of NAGK‑FL25‑C (NAGK fused by a flexible 25-residue linker to Cerulean) (Synechococcus elongatus) (Q6V1L5 whole entry, the tested form may be a part): as the sequence (Q6V1L5 whole entry) above
T1 sequence (P0A3F4 whole entry): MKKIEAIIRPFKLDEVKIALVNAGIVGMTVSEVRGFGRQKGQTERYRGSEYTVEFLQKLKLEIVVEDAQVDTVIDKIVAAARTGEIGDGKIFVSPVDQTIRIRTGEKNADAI
T1 sequence (Q6V1L5 whole entry partner): as the sequence (Q6V1L5 whole entry) above

With `Nc1ncnc2c1ncn2[C@@H]1O[C@H](COP(=O)(O)OP(=O)(O)O)[C@@H](O)[C@H]1O` [ADP], on NAGK‑FL25‑C + PII-ST‑V, the “IC50 (ADP/ATP ratio)” value is listed as ~ 10 ADP/ATP ratio.

“PII signal transduction protein, wild type (from UniProt P0A3F4 1-112) (natural protein)” registered a relief of NAGK from arginine inhibition by PII: fold increase of the IC50 of arginine in the enzyme assay in assay [1] of 25 times. In addition, in assay [2], the Kcat of NAGK activity in the presence of PII (coupled NADH oxidation assay; NAGK-wt alone 38.8 s^-1) is 119 s⁻¹ and the Kcat/Km of NAGK activity in the presence of PII (NAGK-wt alone 1.2E+04) was found to be 180000 M⁻¹ s⁻¹. In addition, in assay [3], the Kcat of NAGK activity in the presence of PII (NAGK-FL25-C alone 41.36 s^-1) was 128 s⁻¹ and the Kcat/Km of NAGK activity in the presence of PII (NAGK-FL25-C alone 1.4E+04) amounted to 240000 M⁻¹ s⁻¹.

Take “PII-E85A‑ST‑V (PII E85A, Strep-tag as linker, Venus) (from UniProt P0A3F4 1-112) (natural protein)”: the maximum FRET ratio (525 nm / 475 nm; zero baseline 0.54) in assay [4] stood at 0.6.

Turning to “PII-S49G‑ST‑V (PII S49G, Strep-tag as linker, Venus) (from UniProt P0A3F4 1-112) (natural protein)”, the partial relief of NAGK from arginine inhibition by PII: fold increase of the IC50 of arginine in the enzyme assay in assay [5] was determined as 8.5 times. The maximum FRET ratio (525 nm / 475 nm; zero baseline 0.54) in assay [4] is 0.8. Also, in assay [2], the Kcat of NAGK activity in the presence of PII (NAGK-wt alone 38.8 s^-1) came to 96.8 s⁻¹ and the Kcat/Km of NAGK activity in the presence of PII (NAGK-wt alone 1.2E+04) worked out at 190000 M⁻¹ s⁻¹. Also, in assay [3], the Kcat of NAGK activity in the presence of PII (NAGK-FL25-C alone 41.36 s^-1) came to 99.6 s⁻¹ and the Kcat/Km of NAGK activity in the presence of PII (NAGK-FL25-C alone 1.4E+04) worked out at 250000 M⁻¹ s⁻¹.

“PII-ST‑V (PII, Strep-tag as linker, Venus) (from UniProt P0A3F4 1-112) (natural protein)”: the maximum FRET ratio (525 nm / 475 nm; zero baseline 0.54) in assay [4] was 1.35. In addition, the FRET level above baseline at the maximal drop (ADP/ATP ratio of about 80) in assay [6] amounted to 10%. In addition, in assay [7], the steady state FRET level above background with 0.8 and 1.6 mM 2-OG amounted to 10%. Further, in assay [2], the Kcat of NAGK activity in the presence of PII (NAGK-wt alone 38.8 s^-1) is 123 s⁻¹ and the Kcat/Km of NAGK activity in the presence of PII (NAGK-wt alone 1.2E+04) was 180000 M⁻¹ s⁻¹. In addition, in assay [3], the Kcat of NAGK activity in the presence of PII (NAGK-FL25-C alone 41.36 s^-1) worked out at 134 s⁻¹ and the Kcat/Km of NAGK activity in the presence of PII (NAGK-FL25-C alone 1.4E+04) is 210000 M⁻¹ s⁻¹.

Source of the values: paper PMC3861474 (PLoS ONE, 2013).
